From article PMC12197088 come the findings set out here.

Data set [1] concerns the target nucleolin (NCL), cell surface of MCF-7;IGFIIR, cell surface of MCF-7 (UniProt P19338+P11717). The data set is described as follows: flow cytometry. The following applies: intact MCF-7 cells (apparent cellular Kd); Dulbecco's PBS with CaCl2 and MgCl2, 4.5 g/L glucose, 5 mM MgCl2, 0.1 mg/mL yeast tRNA, 1 mg/mL BSA; on ice 30 min; pH not stated. (In flow cytometry, cells or beads pass a laser one at a time.)

Data set [2] deals with nucleolin (NCL), cell surface of MCF-7 (UniProt P19338). The data set is described as follows: flow cytometry. The settings on record: intact MCF-7 cells (apparent cellular Kd); Dulbecco's PBS with CaCl2 and MgCl2, 4.5 g/L glucose, 5 mM MgCl2, 0.1 mg/mL yeast tRNA, 1 mg/mL BSA; on ice 30 min; pH not stated.
nucleolin (NCL), cell surface of MCF-7, sequence (P19338 2-710): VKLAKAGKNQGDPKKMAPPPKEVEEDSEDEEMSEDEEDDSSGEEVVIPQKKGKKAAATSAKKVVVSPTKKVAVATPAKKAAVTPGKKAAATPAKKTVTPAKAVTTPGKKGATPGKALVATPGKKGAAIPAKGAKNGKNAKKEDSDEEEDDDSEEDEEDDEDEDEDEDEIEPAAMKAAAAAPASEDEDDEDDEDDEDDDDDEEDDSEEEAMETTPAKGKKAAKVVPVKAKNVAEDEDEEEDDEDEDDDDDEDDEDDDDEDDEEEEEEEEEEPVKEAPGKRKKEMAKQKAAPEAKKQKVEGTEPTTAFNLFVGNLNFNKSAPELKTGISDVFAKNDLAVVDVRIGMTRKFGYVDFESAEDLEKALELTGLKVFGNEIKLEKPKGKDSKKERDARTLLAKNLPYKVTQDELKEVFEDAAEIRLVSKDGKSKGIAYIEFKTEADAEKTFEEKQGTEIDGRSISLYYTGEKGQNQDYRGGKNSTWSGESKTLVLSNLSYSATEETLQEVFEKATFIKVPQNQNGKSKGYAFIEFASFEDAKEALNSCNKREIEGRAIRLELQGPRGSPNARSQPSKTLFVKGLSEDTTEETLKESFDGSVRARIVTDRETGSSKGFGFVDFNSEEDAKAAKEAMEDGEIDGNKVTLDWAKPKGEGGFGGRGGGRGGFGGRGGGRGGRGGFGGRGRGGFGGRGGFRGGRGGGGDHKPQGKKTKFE

nucleolin (NCL), cell surface of MCF-7;IGFIIR, cell surface of MCF-7, sequence (P19338 2-710, chain 1 of 2): as the sequence (P19338 2-710) above
nucleolin (NCL), cell surface of MCF-7;IGFIIR, cell surface of MCF-7, sequence (P11717 41-2491, chain 2 of 2): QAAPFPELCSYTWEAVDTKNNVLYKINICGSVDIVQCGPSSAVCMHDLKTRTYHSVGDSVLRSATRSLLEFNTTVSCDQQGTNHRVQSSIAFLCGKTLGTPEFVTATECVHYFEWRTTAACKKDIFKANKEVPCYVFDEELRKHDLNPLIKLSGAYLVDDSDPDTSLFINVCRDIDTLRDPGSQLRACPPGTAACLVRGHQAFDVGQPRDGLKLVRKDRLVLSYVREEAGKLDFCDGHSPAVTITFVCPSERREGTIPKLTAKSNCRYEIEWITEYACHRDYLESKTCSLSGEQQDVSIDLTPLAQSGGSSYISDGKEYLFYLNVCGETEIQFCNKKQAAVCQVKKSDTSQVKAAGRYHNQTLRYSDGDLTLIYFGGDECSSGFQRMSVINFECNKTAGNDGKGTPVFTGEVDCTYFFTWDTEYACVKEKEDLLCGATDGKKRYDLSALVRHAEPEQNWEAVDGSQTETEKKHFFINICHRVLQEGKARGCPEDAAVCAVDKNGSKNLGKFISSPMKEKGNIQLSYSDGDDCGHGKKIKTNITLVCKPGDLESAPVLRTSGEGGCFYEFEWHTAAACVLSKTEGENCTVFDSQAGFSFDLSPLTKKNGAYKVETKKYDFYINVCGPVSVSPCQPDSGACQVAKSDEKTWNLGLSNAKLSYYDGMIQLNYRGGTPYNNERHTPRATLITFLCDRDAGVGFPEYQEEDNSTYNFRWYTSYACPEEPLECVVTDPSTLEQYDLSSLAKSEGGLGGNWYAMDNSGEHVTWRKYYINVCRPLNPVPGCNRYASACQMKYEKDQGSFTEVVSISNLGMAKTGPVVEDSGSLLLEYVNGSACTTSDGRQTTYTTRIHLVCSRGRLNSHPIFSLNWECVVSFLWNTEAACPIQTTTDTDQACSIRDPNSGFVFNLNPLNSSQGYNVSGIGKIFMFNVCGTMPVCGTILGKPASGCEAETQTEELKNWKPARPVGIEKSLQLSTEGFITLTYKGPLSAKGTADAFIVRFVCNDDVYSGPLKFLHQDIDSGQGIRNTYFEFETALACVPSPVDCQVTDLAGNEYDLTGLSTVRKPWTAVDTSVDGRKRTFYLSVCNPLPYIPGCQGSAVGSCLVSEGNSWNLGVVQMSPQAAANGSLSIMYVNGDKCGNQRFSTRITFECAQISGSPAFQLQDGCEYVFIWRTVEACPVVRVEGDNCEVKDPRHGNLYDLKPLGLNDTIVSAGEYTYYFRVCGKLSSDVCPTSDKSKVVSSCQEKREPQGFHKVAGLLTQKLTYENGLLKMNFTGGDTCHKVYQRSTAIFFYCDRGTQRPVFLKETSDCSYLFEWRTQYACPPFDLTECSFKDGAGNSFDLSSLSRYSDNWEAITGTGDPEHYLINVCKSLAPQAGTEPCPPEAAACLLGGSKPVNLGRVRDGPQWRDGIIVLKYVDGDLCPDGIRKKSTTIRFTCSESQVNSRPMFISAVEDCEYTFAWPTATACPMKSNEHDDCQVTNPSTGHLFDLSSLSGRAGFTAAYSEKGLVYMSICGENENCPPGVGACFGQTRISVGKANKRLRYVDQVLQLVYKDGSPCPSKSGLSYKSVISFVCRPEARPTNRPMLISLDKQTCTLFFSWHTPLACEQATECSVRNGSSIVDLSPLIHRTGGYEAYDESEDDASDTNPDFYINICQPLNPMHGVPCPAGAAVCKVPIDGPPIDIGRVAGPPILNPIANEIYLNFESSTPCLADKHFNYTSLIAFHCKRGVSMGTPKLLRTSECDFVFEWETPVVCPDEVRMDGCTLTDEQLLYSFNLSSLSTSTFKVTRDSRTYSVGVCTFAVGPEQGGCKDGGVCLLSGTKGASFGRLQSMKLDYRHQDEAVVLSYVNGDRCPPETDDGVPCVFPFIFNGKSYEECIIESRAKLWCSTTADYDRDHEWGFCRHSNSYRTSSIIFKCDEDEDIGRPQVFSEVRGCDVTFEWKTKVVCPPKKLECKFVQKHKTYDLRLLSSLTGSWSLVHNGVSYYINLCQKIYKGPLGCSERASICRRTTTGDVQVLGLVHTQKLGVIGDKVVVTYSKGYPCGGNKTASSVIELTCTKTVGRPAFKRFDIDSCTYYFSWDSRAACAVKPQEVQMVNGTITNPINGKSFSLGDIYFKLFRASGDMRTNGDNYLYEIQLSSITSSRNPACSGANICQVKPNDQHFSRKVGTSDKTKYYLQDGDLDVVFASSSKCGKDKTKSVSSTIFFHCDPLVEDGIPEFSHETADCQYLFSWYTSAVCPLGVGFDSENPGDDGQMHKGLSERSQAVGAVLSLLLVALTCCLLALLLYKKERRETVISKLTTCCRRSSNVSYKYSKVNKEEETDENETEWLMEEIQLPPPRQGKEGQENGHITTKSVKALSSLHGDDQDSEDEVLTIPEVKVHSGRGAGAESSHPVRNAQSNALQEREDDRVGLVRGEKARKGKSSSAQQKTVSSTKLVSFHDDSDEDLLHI

As to “TTTTTTTTTTTTTTTGGGCGCGTAGATGACGAGCAGTCCTAACATCGTTTAGGAC / AAAAAAAAAAAAAAAGGTGGTGGTGGTTGTGGTGGTGGTGG [Mo-AS (monovalent NCL/IGFIIR chimera)]”, the Kd in data set [1] turned out to be 518 nM.
As to “GGTGGTGGTGGTTGTGGTGGTGGTGG [AS1411 (NCL aptamer)]”, the Kd in data set [2] stood at 137 nM.
